A short description of this series: self-splicing fitness, log relative to wild type (ln ratio); higher = more splicing; Tetrahymena group I intron in knt gene, E. coli kanamycin selection, DiMSum; sequences stand for … in CUCUCU…GGAGGGAAAAGUUAUCAGGCAUGCACCUGGUAGCUAGUCUUUAAACCAAUAGAUUGCAUCGGUUUAAAAGGCAAGACCGUCAAAUUGCGGGAAAGGGGUCAACAGCCGUUCAGUACCAAGUCUCAGGGGAAACUUUGAGAUGGCCUUGCAAAGGGUAUGGUAAUAAGCUGACGGACAUGGUCCUAACCACGCAGCCAAGUCCUAAGUCAACAGAUCUUCUGUUGAUAUGGAUGCAGUUCACAGACUAAAUGUCGGUCGGGGAAGAUGUAUUCUUCUCAUAAGAUAUAGUCGGACCUCUCCUUAAUGGGAGCUAGCGGAUGAAGUGAUGCAACACUGGAGCCGCUGGGAACUAAUUUGUAUGCGAAAGUAUAUUGAUUAGUUUUGGAGUACUCGUGGUCG
In short, it runs like this:
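A randomised library covering all eight P1ex-region intron nucleotides was built with the intron in the knt kanamycin-resistance gene on pET-22b(+) and held in E. coli BL21(DE3). Cells were grown overnight at 37°C or 30°C on LB agar, with or without 25 μg/mL kanamycin, plus 100 μg/mL carbenicillin, 50 μM IPTG and 0.2% rhamnose, and pooled colonies were amplicon-sequenced on an Illumina HiSeq 2500. DiMSum fitness is the error-weighted combination of wild-type-normalised replicate fold changes, kanamycin versus none.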

These results are taken from the supplement of paper PMC7877785.

± gives the uncertainty stated by the source.

For the sequence AAACAGCAAUAUUACGGUGA, the “self-splicing fitness (ln)” value reads like this: (30 °C) -0.283 ± 0.093; (37 °C) -0.496 ± 0.12.

As to GCUGAGCAAUAUUACGCCGC, the “self-splicing fitness (ln)” value (30 °C) is -2.62 ± 0.34.

In the case of UUGCAGCAAUAUUACGGAAU, the “self-splicing fitness (ln)” value (30 °C) was -2.83 ± 0.3.

Turning to AGAUAGCAAUAUUACGAAGG, the “self-splicing fitness (ln)” value (30 °C) was -2.57 ± 0.2.

As for GAAAAGCAAUAUUACGAUUU, the “self-splicing fitness (ln)” value was -0.346 ± 0.052 (30 °C) and -0.372 ± 0.073 (37 °C).

Consider UUCGAGCAAUAUUACGGUCC, for which the “self-splicing fitness (ln)” value is, setting by setting: (30 °C) -1.91 ± 0.39; (37 °C) -1.56 ± 0.43.

For UUGUAGCAAUAUUACGAGUA, the “self-splicing fitness (ln)” value is, setting by setting: (30 °C) -2.13 ± 0.31; (37 °C) -1.22 ± 0.29.

For the sequence AGUAAGCAAUAUUACGACUG, the “self-splicing fitness (ln)” value runs as follows: (30 °C) -1.45 ± 0.12; (37 °C) 0.23 ± 0.15.

As to AUCUAGCAAUAUUACGGUCG, the “self-splicing fitness (ln)” value by setting is: (30 °C) -2.96 ± 0.22; (37 °C) 0.125 ± 0.18.

GCAAAGCAAUAUUACGCAAC: the “self-splicing fitness (ln)” value by setting is: (30 °C) -3.02 ± 0.15; (37 °C) -1.23 ± 0.12.

As for GAGUAGCAAUAUUACGCCGA, the “self-splicing fitness (ln)” value reads like this: (30 °C) -1.54 ± 0.17; (37 °C) -0.774 ± 0.13.

With GAACAGCAAUAUUACGUCUA, the “self-splicing fitness (ln)” value reads like this: (30 °C) -0.567 ± 0.074; (37 °C) -0.586 ± 0.073.

With GAAGAGCAAUAUUACGCAGU, the “self-splicing fitness (ln)” value by setting is: (30 °C) -2.47 ± 0.2; (37 °C) -2.38 ± 0.23.

On to GAAAAGCAAUAUUACGACAU, for which the “self-splicing fitness (ln)” value runs as follows: (30 °C) -0.184 ± 0.011; (37 °C) 0.116 ± 0.032.

Turning to UCAUAGCAAUAUUACGUGUC, the “self-splicing fitness (ln)” value was -3.2 ± 0.21 (30 °C) and -3.08 ± 0.27 (37 °C).

As to AAGUAGCAAUAUUACGAACA, the “self-splicing fitness (ln)” value is, setting by setting: (30 °C) -1.1 ± 0.13; (37 °C) -0.811 ± 0.18.

In the case of CCCCAGCAAUAUUACGUUCA, the “self-splicing fitness (ln)” value is -2.97 ± 0.12 (30 °C) and -2.84 ± 0.2 (37 °C).

Turning to AUUUAGCAAUAUUACGGCUG, the “self-splicing fitness (ln)” value is -0.937 ± 0.12 (30 °C) and -0.723 ± 0.13 (37 °C).

UACAAGCAAUAUUACGCCGG: the “self-splicing fitness (ln)” value was -1.53 ± 0.11 (30 °C) and -0.146 ± 0.18 (37 °C).

In the case of AACCAGCAAUAUUACGUACA, the “self-splicing fitness (ln)” value reads like this: (30 °C) -1.08 ± 0.08; (37 °C) -0.429 ± 0.11.

On to CGUAAGCAAUAUUACGUAAC, for which the “self-splicing fitness (ln)” value by setting is: (30 °C) -4.35 ± 0.26; (37 °C) -2.51 ± 0.21.

Consider CCAGAGCAAUAUUACGCAAG, for which the “self-splicing fitness (ln)” value was -2.15 ± 0.19 (30 °C) and -2.33 ± 0.29 (37 °C).

Take UAAUAGCAAUAUUACGGACG: the “self-splicing fitness (ln)” value by setting is: (30 °C) -0.227 ± 0.12; (37 °C) 0.175 ± 0.15.

As for AGUGAGCAAUAUUACGACGU, the “self-splicing fitness (ln)” value (30 °C) is -0.966 ± 0.059 and the “self-splicing fitness (ln)” value (37 °C) was -0.385 ± 0.066.

For the sequence UAGGAGCAAUAUUACGGGUG, the “self-splicing fitness (ln)” value runs as follows: (30 °C) -2.74 ± 0.27; (37 °C) -1.14 ± 0.26.

As to GAGCAGCAAUAUUACGAUCC, the “self-splicing fitness (ln)” value (30 °C) is -2.45 ± 0.19 and the “self-splicing fitness (ln)” value (37 °C) is -0.494 ± 0.17.

As to CAAUAGCAAUAUUACGGAGG, the “self-splicing fitness (ln)” value is -1.16 ± 0.07 (30 °C) and -1.26 ± 0.11 (37 °C).

With GUUGAGCAAUAUUACGUAAU, the “self-splicing fitness (ln)” value was -1.76 ± 0.093 (30 °C) and -0.913 ± 0.12 (37 °C).

As to AGUAAGCAAUAUUACGCACU, the “self-splicing fitness (ln)” value by setting is: (30 °C) -3.07 ± 0.29; (37 °C) -1.79 ± 0.29.

Consider CGUCAGCAAUAUUACGAGUU, for which the “self-splicing fitness (ln)” value runs as follows: (30 °C) -3.3 ± 0.22; (37 °C) -1.84 ± 0.22.

With CGAGAGCAAUAUUACGGCAA, for the setting “37 °C”, the “self-splicing fitness (ln)” value is -2.79 ± 0.48.

Regarding ACUUAGCAAUAUUACGCGGU, the “self-splicing fitness (ln)” value reads like this: (30 °C) -3.26 ± 0.41; (37 °C) -1.84 ± 0.26.

CGCUAGCAAUAUUACGCCUA: the “self-splicing fitness (ln)” value is -2.65 ± 0.25 (30 °C) and -3.05 ± 0.28 (37 °C).

For the sequence CCACAGCAAUAUUACGACUU, the “self-splicing fitness (ln)” value (30 °C) is -4 ± 0.28 and the “self-splicing fitness (ln)” value (37 °C) was -2.81 ± 0.27.

Turning to GUAAAGCAAUAUUACGAUUU, the “self-splicing fitness (ln)” value was -0.348 ± 0.051 (30 °C) and 0.232 ± 0.065 (37 °C).

For GGCUAGCAAUAUUACGCUGG, for the setting “30 °C”, the “self-splicing fitness (ln)” value was -4.2 ± 0.42.

In the case of AUGGAGCAAUAUUACGCCCA, the “self-splicing fitness (ln)” value by setting is: (30 °C) -1.95 ± 0.27; (37 °C) -1.03 ± 0.26.

For the sequence CACAAGCAAUAUUACGCCGC, the “self-splicing fitness (ln)” value is -2.66 ± 0.28 (30 °C) and -2.34 ± 0.37 (37 °C).

For the sequence CAUUAGCAAUAUUACGUCCA, the “self-splicing fitness (ln)” value is, setting by setting: (30 °C) -3.34 ± 0.32; (37 °C) -1.3 ± 0.28.

As for GGACAGCAAUAUUACGUCAC, the “self-splicing fitness (ln)” value is, setting by setting: (30 °C) -2.41 ± 0.17; (37 °C) -1.56 ± 0.2.

With GUGGAGCAAUAUUACGGAAA, the “self-splicing fitness (ln)” value (30 °C) is -1.87 ± 0.46.

Turning to GUUAAGCAAUAUUACGUAUU, the “self-splicing fitness (ln)” value is -3.27 ± 0.19 (30 °C) and -0.277 ± 0.16 (37 °C).

With AGGAAGCAAUAUUACGGCUA, the “self-splicing fitness (ln)” value by setting is: (30 °C) -0.35 ± 0.11; (37 °C) 0.0571 ± 0.15.

GGUAAGCAAUAUUACGACGA: the “self-splicing fitness (ln)” value (30 °C) was -0.849 ± 0.098 and the “self-splicing fitness (ln)” value (37 °C) was determined as 0.225 ± 0.098.

For the sequence UUGUAGCAAUAUUACGGGCA, the “self-splicing fitness (ln)” value runs as follows: (30 °C) -1.8 ± 0.21; (37 °C) -0.65 ± 0.2.

On to CACAAGCAAUAUUACGAUGC, for which the “self-splicing fitness (ln)” value is, setting by setting: (30 °C) -4.12 ± 0.31; (37 °C) -2.69 ± 0.27.

For AUCAAGCAAUAUUACGCUUU, the “self-splicing fitness (ln)” value by setting is: (30 °C) -3.57 ± 0.15; (37 °C) -2.31 ± 0.12.

Turning to GAAGAGCAAUAUUACGACAA, for the setting “37 °C”, the “self-splicing fitness (ln)” value was -2.02 ± 0.38.

UACCAGCAAUAUUACGUCCG: the “self-splicing fitness (ln)” value is, setting by setting: (30 °C) -0.95 ± 0.058; (37 °C) -0.0389 ± 0.083.

On to ACCUAGCAAUAUUACGUGGC, for which the “self-splicing fitness (ln)” value reads like this: (30 °C) -3.35 ± 0.21; (37 °C) -2.02 ± 0.21.

Regarding AUUAAGCAAUAUUACGUCGA, the “self-splicing fitness (ln)” value reads like this: (30 °C) -1 ± 0.1; (37 °C) -0.855 ± 0.13.

With CUGAAGCAAUAUUACGGCGA, the “self-splicing fitness (ln)” value (30 °C) is -3.53 ± 0.27.

Consider CUACAGCAAUAUUACGCAUA, for which the “self-splicing fitness (ln)” value runs as follows: (30 °C) -3.32 ± 0.24; (37 °C) -2.28 ± 0.2.

For the sequence AUCUAGCAAUAUUACGUCGG, the “self-splicing fitness (ln)” value runs as follows: (30 °C) -3.23 ± 0.2; (37 °C) -2.72 ± 0.27.

In the case of UUAAAGCAAUAUUACGCAAU, the “self-splicing fitness (ln)” value was -2.44 ± 0.15 (30 °C) and -1.42 ± 0.17 (37 °C).

In the case of AACAAGCAAUAUUACGUAAC, the “self-splicing fitness (ln)” value by setting is: (30 °C) -3.29 ± 0.12; (37 °C) -2.33 ± 0.17.

As to UGUGAGCAAUAUUACGGUUG, the “self-splicing fitness (ln)” value (30 °C) was -2.98 ± 0.19 and the “self-splicing fitness (ln)” value (37 °C) was -2.17 ± 0.23.

For AAUAAGCAAUAUUACGCAGA, the “self-splicing fitness (ln)” value runs as follows: (30 °C) -3.73 ± 0.3; (37 °C) -2.38 ± 0.23.

Regarding UUCCAGCAAUAUUACGCCAG, the “self-splicing fitness (ln)” value (30 °C) was -1.93 ± 0.15 and the “self-splicing fitness (ln)” value (37 °C) was -0.95 ± 0.15.

Regarding CUAAAGCAAUAUUACGUCUC, the “self-splicing fitness (ln)” value (37 °C) was -1.93 ± 0.46.

Take ACACAGCAAUAUUACGUAAA: the “self-splicing fitness (ln)” value by setting is: (30 °C) -3.49 ± 0.15; (37 °C) -1.2 ± 0.12.

On to GGCGAGCAAUAUUACGACCU, for which the “self-splicing fitness (ln)” value by setting is: (30 °C) -0.951 ± 0.19; (37 °C) -0.976 ± 0.39.

Take GCGCAGCAAUAUUACGGCGA: the “self-splicing fitness (ln)” value reads like this: (30 °C) -0.0713 ± 0.075; (37 °C) -0.173 ± 0.089.

As for AUAGAGCAAUAUUACGCUCG, the “self-splicing fitness (ln)” value was -0.665 ± 0.41 (30 °C) and 0.704 ± 0.38 (37 °C).

UCCCAGCAAUAUUACGGUUU: the “self-splicing fitness (ln)” value by setting is: (30 °C) -1.23 ± 0.061; (37 °C) -0.274 ± 0.076.

Take UAUCAGCAAUAUUACGAGUC: the “self-splicing fitness (ln)” value (37 °C) was -1.81 ± 0.48.

For the sequence CCCCAGCAAUAUUACGUACC, the “self-splicing fitness (ln)” value reads like this: (30 °C) -4.07 ± 0.18; (37 °C) -3.36 ± 0.35.

In the case of CAGUAGCAAUAUUACGAGUG, the “self-splicing fitness (ln)” value runs as follows: (30 °C) -0.988 ± 0.052; (37 °C) -0.603 ± 0.076.

AUAAAGCAAUAUUACGGGAG: the “self-splicing fitness (ln)” value is -1.52 ± 0.11 (30 °C) and -1.23 ± 0.14 (37 °C).

As for GAUUAGCAAUAUUACGACUG, the “self-splicing fitness (ln)” value reads like this: (30 °C) -0.181 ± 0.12; (37 °C) -0.313 ± 0.14.

For the sequence CUCUAGCAAUAUUACGAAGU, the “self-splicing fitness (ln)” value is, setting by setting: (30 °C) -3.44 ± 0.21; (37 °C) -4.77 ± 0.23.
